Assay results from patent US20250304670A1 (AstraZeneca / MedImmune, published 2025).

T1: Biotinylated Scrambled Amyloid Beta 1-42 peptide (N-terminal biotin)
T1 construct: Anaspec custom synthesis; control peptide; also called scrambled human Amyloid beta 1-42 peptide; biotinylated scrambled human Amyloid beta 1-42
T1 peptide: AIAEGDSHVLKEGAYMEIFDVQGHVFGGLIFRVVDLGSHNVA

T2: Biotinylated Murine Amyloid Beta 1-42 peptide (murine, not fully specified; N-terminal biotin)
T2 construct: Anaspec 61718-01
T2 peptide: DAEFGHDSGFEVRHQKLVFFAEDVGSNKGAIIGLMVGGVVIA

T3: Human Amyloid Beta 1-16 truncated peptide (human)
T3 construct: synthetic, unlabelled; also called Abeta 1-16
T3 peptide: DAEFRHDSGYEVHHQK

B1: Abet0007 sFab (Fab, V domains shown)
VH: EVQLLESGGGLVQPGGSLRLSCAASGFTFSVYTMWWVRQAPGKGLEWVSVIGSSGGTTVYADSVKGRFTISRDNSKNTLYLQMNSLRAEDTAVYYCAREGQQLVRPYYYYGMDVWGQGTLVTVSS
VL: QSVLTQPPSVSVSPGQTASITCSGHNLEDKFASWYQQKSGQSPVLVIYRDDKRPSGIPERFSASNSGHTATLTISGTQATDEADYYCQAQDSTTRVFGGGTKLTVL
notes: soluble single chain Fab fragment (sFab) from the Dyax Fab310-Lambda library, histidine tagged, purified from E. coli; also called Abet0007 Fab; purified Abet0007 Fab
B2: Abet0144-GL IgG1-TM (antibody, V domains shown)
VH: EVQLLESGGGLVQPGGSLRLSCAASGFTFSVYTMWWVRQAPGKGLEWVSVIGSSGGTTVYADSVKGRFTISRDNSKNTLYLQMNSLRAEDTAVYYCAREWMDHSRPYYYYGMDVWGQGTLVTVSS
VL: SYELTQPPSVSVSPGQTASITCSGHNLEDKFASWYQQKPGQSPVLVIYRDDKRPSGIPERFSASNSGHTATLTISGTQAMDEADYYCQAQDSTTRVFGGGTKLTVL
notes: human IgG1 with the triple mutation L234F/L235E/P331S (TM), human lambda light chain; also called Abet0144-GL (germlined) IgG1-TM

What was measured:
[1] = molecular target: T1, Biotinylated Scrambled Amyloid Beta …; assay: direct binding HTRF, purified sFab and scrambled peptide
[2] = molecular target: T4, Biotinylated Human Amyloid Beta 1-42 peptide (human, N-terminal biotin); assay: HTRF direct binding: dilution series of purified His-tagged Fab with biotinylated human Amyloid beta 1-42 peptide, streptavidin cryptate and anti-6his-XL665 (sections 1.3, 1.4)
T4 construct: synthetic (rPeptide A1117 or Bachem H-5642); also called N-terminal biotin Abeta 1-42; synthetic biotinylated human Amyloid beta 1-42 peptide
Experimental: (§1) Selection outputs were screened as unpurified bacterial periplasmic extracts containing sFab, prepared in 50 mM MOPS buffer pH 7.4, 0.5 mM EDTA and 0.5 M sucrose. Ten microlitres of unpurified sFab samples were added to a Costar® 384 well assay plate (Corning, USA; cat: 3676). This was followed by the addition of 5 μl of 20 nM synthetic human Amyloid beta 1-42 and 5 μl of a combined solution of 6 nM streptavidin cryptate and 20 nM anti-his-XL665. Non-specific binding wells (negative controls) were defined for each plate by using a negative control unpurified sFab in place of the test sFab sample. Cross-reactive sFab clones were identified using a concurrent assay with human Amyloid beta 1-40 peptide. […] Assay plates were incubated for 4 hours at room temperature prior to reading time resolved fluorescence on an EnVision plate reader (PerkinElmer, USA) using an excitation wavelength of 320 nm and measuring the emission at 620 nm and 665 nm (100 flashes).
(§2) The sFab with unique protein sequences were expressed in E. coli and purified by affinity chromatography (essentially as described (Bannister et al., 2006)). The Amyloid beta binding profile of each purified sFab was determined by testing a dilution series of the purified sFab in the HTRF™ assay described in section 1.3, substituting the unpurified sFab periplasmic preparation with the purified sFab.

[3] = molecular target: T5, Biotinylated Human Amyloid Beta 1-40 peptide (human, N-terminal biotin); assay: HTRF direct binding: dilution series of purified His-tagged Fab with biotinylated human Amyloid beta 1-40 peptide, streptavidin cryptate and anti-6his-XL665 (sections 1.3, 1.4)
T5 construct: synthetic
Experimental: as §1, §2

[4] = molecular target: T2, Biotinylated Murine Amyloid Beta 1-42 …; assay: direct binding HTRF, purified sFab and biotinylated peptide
[5] = molecular target: T6, Amyloid beta plaques on Tg2576 mouse brain sections (human (transgene in Tg2576 mice), UniProt P05067 672-713); assay: in vitro immunohistochemistry, core plaques
T6 construct: mixture of Amyloid beta species in tissue; also called Tg2576 brain sections; Amyloid beta plaques in aged Tg2576 mice

[6] = molecular target: T7, Amyloid beta plaques on human Alzheimer's Disease brain sections (human, UniProt P05067 672-713); assay: in vitro immunohistochemistry, core plaques
T7 construct: mixture of Amyloid beta species in tissue; also called native Amyloid beta; human AD brain sections

[7] = molecular target: T1, Biotinylated Scrambled Amyloid Beta …; assay: SPR (BIAcore T-100), antibody amine-coupled to a CM3 chip, peptide analyte at 400 nM (section 2.9)
Experimental: (§3) The affinity of binding between each test IgG and each peptide was estimated using assays in which the antibody was covalently coupled by amine-linkage to a proprietary CM3 chip surface to a final surface density of approximately 2,000 RU. The chip surface was regenerated between cycles by a single 40 second injection of 10 mM Glycine pH 2.0 to remove ligand bound to the antibody.
(§4) Blank reference flow-cell data were subtracted from each IgG dataset and a zero-concentration buffer blank was double-reference subtracted from the main dataset to reduce the impact of any buffer artefacts or non-specific binding effects.

[8] = molecular target: T5, Biotinylated Human Amyloid Beta 1-40 …; assay: as above
Experimental: as §3, §4

[9] = molecular target: T3, Human Amyloid Beta 1-16 truncated …; assay: TR-FRET peptide competition against biotinylated human Amyloid beta 1-42
Experimental: (§5) This involved the use of Europium cryptate labelled anti-human Fc IgG (CisBio International, France; cat: 61 HFCKLB) and XL665 labelled streptavidin (CisBio International, France; cat: 611SAXLB) TR-FRET detection reagents.
(§6) Experiments were set up in Costar 384 well shallow bottom microtitre plates. […] 5 μl of assay buffer only was added to the negative binding assay control wells. […] 5 μl per well of each test peptide serial dilution was then transferred onto the 384 well assay plate. 5 μl of assay buffer only was added to the total and negative binding assay control wells. […] Finally, a combined solution was prepared containing Europium cryptate labelled anti-human Fc (2.4 nM) and XL665 labelled streptavidin (60 nM). 5 μl per well of this solution was added to all wells of the 384 well assay plate such that the final concentrations of Europium cryptate labelled anti-human Fc and XL665 labelled streptavidin were 0.6 nM and 15 nM, respectively.

[10] = molecular target: T8, human Amyloid beta pyro 3-42 peptide (human, pyroglutamate at residue 3 (the N-terminal residue)); assay: as above
T8 construct: the pyro form (Anaspec 29907) has no entry of its own; also called Abeta pyro-3-42; Abeta Pyro-3-42
Experimental: as §5, §6

[11] = molecular target: T9, Human Amyloid Beta 1-42 peptide (human); assay: SPR (BIAcore T-100), peptide over amine-coupled IgG, 1:1 Langmuir fit
T9 construct: synthetic, unlabelled; also used here for the endogenous peptide of human plasma in the depletion assay; also called unlabelled human Amyloid beta 1-42; synthetic human Amyloid beta 1-42 peptide
Experimental: as §3, with “human Amyloid beta 1-42” for “each peptide”, “amine linkage” for “amine-linkage”
as §4, with “effects. An appropriate binding model was then fitted simultaneously to the data from each analyte titration using the BIAevaluation software.” for “effects.”

[12] = molecular target: T10, Human Amyloid Beta 1-40 peptide (human); assay: TR-FRET peptide competition: dilution series of unlabelled peptide against 1.5 nM biotinylated human Amyloid beta 1-42 peptide for 0.28 nM Abet0144-GL IgG1-TM (section 2.10)
T10 construct: synthetic, unlabelled; also called unlabelled human Amyloid beta 1-40
Experimental: as §5, §6

T5 sequence (peptide, as listed by the source): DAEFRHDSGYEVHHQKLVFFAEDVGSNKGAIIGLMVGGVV
T10 sequence (peptide, as listed by the source): as above

| Binder | binding result [1] | EC50 (read off the curve) [2] [nM] | binding result [3] | binding result [4] | plaque staining score (0-4) [5] | plaque staining score (0-4) [6] | binding result [7] | binding result [8] | binding result [9] | binding result [10] | Kd [11] [nM] | koff [11] [s⁻¹] | kon [11] [M⁻¹ s⁻¹] | binding result [12] |
| --- | --- | --- | --- | --- | --- | --- | --- | --- | --- | --- | --- | --- | --- | --- |
| B1 | no binding | ~6 | no binding (tested: 1e-7 M (Log M -7)) | binds |  |  |  |  |  |  |  |  |  |  |
| B2 |  |  |  |  | 1 | 1.5 | no binding (tested: 400 nM) | no binding (tested: 400 nM) | no binding (tested: 10 uM) | binds | 9.5 | 0.00197 | 208000 | no binding (tested: 1e-5 M (logM -5)) |
